Laboratory results reported in article PMC6199135, “Differing isoforms of the cobalamin binding photoreceptor AerR oppositely regulate photosystem expression” (eLife, 2018).

T1: CrtJ (Rhodobacter capsulatus, UniProt P26167 1-469, labeled using RED-NHS protein labeling kit (Nanotemper))
T1 construct: CrtJ, redox-responding transcription factor (aerobic repressor of photosystem genes) of Rhodobacter capsulatus; also called SUMO-CrtJ; PpsR (name in some other species); source: recombinant protein from plasmid pSUMO-CrtJ (PMID: 22715852)
T1 sequence (looked up): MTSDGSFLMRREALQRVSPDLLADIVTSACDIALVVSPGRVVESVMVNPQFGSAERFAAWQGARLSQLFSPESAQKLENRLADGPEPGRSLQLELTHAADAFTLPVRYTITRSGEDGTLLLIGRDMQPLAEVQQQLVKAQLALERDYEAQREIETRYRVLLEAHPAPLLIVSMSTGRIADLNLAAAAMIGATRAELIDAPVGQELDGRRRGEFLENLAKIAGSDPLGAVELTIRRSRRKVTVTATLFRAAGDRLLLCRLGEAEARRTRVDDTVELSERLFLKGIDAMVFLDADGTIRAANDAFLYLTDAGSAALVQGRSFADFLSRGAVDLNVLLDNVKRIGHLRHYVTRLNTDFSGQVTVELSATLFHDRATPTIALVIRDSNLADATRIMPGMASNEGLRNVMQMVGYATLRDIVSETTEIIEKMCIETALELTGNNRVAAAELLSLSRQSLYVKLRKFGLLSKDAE


Key:
[1] = biological target: CrtJ (Rhodobacter capsulatus) (UniProt P26167); experiment: MST; Monolith NT.115; RED-NHS-labeled CrtJ kept constant (200 or 500 nM), AerR varied from µM to nM; 20 mM Tris-HCl pH 8.0, 200 mM NaCl; AerR with bound hydroxyl-Cbl (OH-Cbl)
[2] = biological target: CrtJ (Rhodobacter capsulatus) (UniProt P26167); experiment: MST; Monolith NT.115; RED-NHS-labeled CrtJ kept constant (200 or 500 nM), AerR varied from µM to nM; 20 mM Tris-HCl pH 8.0, 200 mM NaCl; SAerR with bound Adenosyl-Cbl (Ado-Cbl)
CrtJ = biological target: T1, CrtJ; experiment: MST; Monolith NT.115; RED-NHS-labeled CrtJ kept constant (200 or 500 nM), AerR varied from µM to nM; 20 mM Tris-HCl pH 8.0, 200 mM NaCl; AerR with bound hydroxyl-Cbl (OH-Cbl); conditions: both partners purified

Molecule	EC50 [1]	EC50 [2]	EC50 (CrtJ)
SAerR (short isoform of AerR) (natural protein)	2100 nM	2100 nM	–
LAerR (long isoform of AerR) (natural protein) MNGVAELQTVLVNRMVELATGPELGAMDLLFDEFRAAHVPVEEMATHYIPEAARQIGAAWDSDRIGFAQVTIAISRLQELLHALQTLVTADSVGCANGATVLLIVPPGEQHTLGALIVAMELRRRGVSVRIVFAPGLSDLSRLMATTRFDAALITVGSMDRVEICAKLVKTLSSLTKGRMRVAIGGAIVSQRAEALARTGADLVTNDLSLVISEFSLV	–	–	7800 ± 1200 nM
